Test results as given in US20190225686A1 (Daiichi Sankyo, published 2019).

What was measured:
human GPR20 [1] = biological target: T1, human GPR20 (human, UniProt Q99678 1-358); assay: cell-based or functional assay
[2] = biological target: GPR20-EGFP protein comprising human GPR20 linked at its C-terminus to EGFP (human, UniProt Q99678 1-358); assay: cell-based or functional assay
mouse GPR20 = biological target: T2, mouse GPR20 (mouse, UniProt Q8BYC4 1-358); assay: Cell-ELISA on 293a cells transiently expressing mouse GPR20
T2 construct: whole, on cells; also called mGPR20; mouse GPR20 (NP_775541)
Protocol: (§1) The cells were left standing at 4° C. for 1 hour. […] The cells were left standing at 4° C. for 1 hour. The cells in the wells were washed three times with PBS (+) supplemented with 5% FBS, and thereafter, OPD chromogenic solution (which had been prepared by dissolving o-phenylenediamine dihydrochloride (Wako Pure Chemical Industries, Ltd.) and H₂O₂ in an OPD solution (0.05 M trisodium citrate, 0.1 M disodium hydrogen phosphate 12-water; pH 4.5), so that the substances became 0.4 mg/ml and 0.6% (v/v), respectively) was added in an amount of 100 μL/well to the wells. A coloring reaction was carried out with occasional stirring. Thereafter, 1 M HCl was added to the plate (100 μL/well) to terminate the coloring reaction, followed by measurement of the absorbance at 490 nm using a plate reader (ENVISION: PerkinElmer, Inc.).

[3] = biological target: T3, human/mouse chimeric GPR20 in which EC2 of human GPR20 was substituted with EC2 of mouse GPR20 (human, UniProt Q99678 1-358); assay: Cell-ELISA on 293a cells transiently expressing hGPR20_mECD2
T3 construct: also called hGPR20_mECD2
Protocol: as §1

human GPR20 [4] = biological target: T1, human GPR20; assay: flow cytometry on 293T cells transfected with pcDNA3.1-hGPR20
Protocol: The cells were cultured overnight under conditions of 37° C. and 5% CO₂, and thereafter, a cell suspension was prepared. To the obtained cell suspension, each humanized anti-GPR20 antibody was added, and the obtained mixture was left standing at 4° C. for 1 hour. […] The cells were left standing at 4° C. for 1 hour. The cells were washed twice with PBS supplemented with 5% FBS, and then re-suspended in PBS supplemented with 5% FBS, followed by detection using a flow cytometer (BD FACSCant II; BD Biosciences). The data was analyzed using Flowjo (Tree Star, Inc.). […] In the histograms of FIG. 24, the abscissa depicts the fluorescence intensity of PE indicating the amount of the antibody bound, and the ordinate depicts a cell count.

T2 sequence (Q8BYC4 whole entry): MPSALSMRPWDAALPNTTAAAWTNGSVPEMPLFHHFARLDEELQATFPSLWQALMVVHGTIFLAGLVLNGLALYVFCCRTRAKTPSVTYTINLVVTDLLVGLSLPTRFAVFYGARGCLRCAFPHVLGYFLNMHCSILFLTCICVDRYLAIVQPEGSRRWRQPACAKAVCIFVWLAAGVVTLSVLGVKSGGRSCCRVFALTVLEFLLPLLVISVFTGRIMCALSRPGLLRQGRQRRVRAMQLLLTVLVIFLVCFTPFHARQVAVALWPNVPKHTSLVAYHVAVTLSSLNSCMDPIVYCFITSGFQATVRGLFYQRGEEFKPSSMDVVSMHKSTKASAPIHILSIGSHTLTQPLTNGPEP
Sequence of GPR20-EGFP protein comprising human GPR20 linked at its C-terminus to EGFP (Q99678 whole entry): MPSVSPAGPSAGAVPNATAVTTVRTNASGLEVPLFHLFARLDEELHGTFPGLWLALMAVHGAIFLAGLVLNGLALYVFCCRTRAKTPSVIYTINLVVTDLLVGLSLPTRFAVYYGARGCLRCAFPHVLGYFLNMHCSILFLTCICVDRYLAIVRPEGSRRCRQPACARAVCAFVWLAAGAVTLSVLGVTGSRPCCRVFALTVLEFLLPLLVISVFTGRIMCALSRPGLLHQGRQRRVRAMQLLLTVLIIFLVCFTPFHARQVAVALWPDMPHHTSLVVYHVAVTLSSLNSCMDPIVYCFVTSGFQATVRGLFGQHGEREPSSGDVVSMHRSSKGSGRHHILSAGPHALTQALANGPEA
T1 sequence (Q99678 whole entry): as above
T3 sequence (Q99678 other isoform, or with tags, fused parts or gaps mutant): as the sequence (Q99678 whole entry) above, with Y113F counted along it

Row | Binder | binding result (human GPR20 [4]) | further results
1 | rat anti-GPR20 antibody 04-079 (antibody, rat IgG2b, V domains shown, Rat IgG2b, kappa; also called 04-079 antibody) VH: QVQLQQSGAELAKPGSSVKISCKASGYTFTSYYITWIKQTTGQGLKYIGYINPGSGHTNYNEKFKGKATLTVDKSSSTAFMQLSSLTPDDSAVYYCARGAGGFLRIISKFDYWGQGVMVTVSS VL: DTVLTQSPALAVSLGQRVTISCRASKSVSTYMHWYQQRSGQQPKLLIYSASNLESGVPSRFSGSGSGTDFTLTIDPVKADDITNYYCQQSNELPYTFGAGTKLELKR |  | cell proliferation suppression rate (Rat-ZAP internalization screening) (human GPR20 [1]): ≥ 60%; Cell survival rate (%) in internalization activity evaluation [2]: 62%; binding result (mouse GPR20): no binding; binding result [3]: no binding
2 | rat anti-GPR20 antibody 04-046 (antibody, rat IgG2b, Rat IgG2b, kappa; also called 04-046 antibody) heavy: QVQLQQSGAELAKPGSSVKISCKASGYTFTSYYISWIKQTTGQGLKYIGFINPGSGHTNYNEKFKGKATLTVDKSSSTAFMQLSSLTPDDSAIYYCARGAGGFLRIITKFDYWGQGVMVTVSSAQTTAPSVYPLAPGCGDTTSSTVTLGCLVKGYFPEPVTVTWNSGALSSDVHTFPAVLQSGLYTLTSSVTSSTWPSQTVTCNVAHPASSTKVDKKVERRNGGIGHKCPTCPTCHKCPVPELLGGPSVFIFPPKPKDILLISQNAKVTCVVVDVSEEEPDVQFSWFVNNVEVHTAQTQPREEQYNSTFRVVSALPIQHQDWMSGKEFKCKVNNKALPSPIEKTISKPKGLVRKPQVYVMGPPTEQLTEQTVSLTCLTSGFLPNDIGVEWTSNGHIEKNYKNTEPVMDSDGSFFMYSKLNVERSRWDSRAPFVCSVVHEGLHNHHVEKSISRPPGK light: DTVLTQSPALAVSLGQRVTISCRASKSVSTYIHWYQQRSGQQPKLLIYSASNLESGVPSRFSGSGSGTDFTLTIDPVEPDDIANYYCQQINELPYTFGAGTKLELKRADAAPTVSIFPPSTEQLATGGASVVCLMNNFYPRDISVKWKIDGTERRDGVLDSVTDQDSKDSTYSMSSTLSLTKADYESHNLYTCEVVHKTSSSPVVKSFNRNEC |  | cell proliferation suppression rate (Rat-ZAP internalization screening) (human GPR20 [1]): ≥ 60%; Cell survival rate (%) in internalization activity evaluation [2]: 57%; binding result (mouse GPR20): no binding; binding result [3]: no binding
3 | rat anti-GPR20 antibody 04-126 (antibody, rat IgG2b, V domains shown, Rat IgG2b, kappa; also called 04-126 antibody; 04-0126) VH: QVQLRQSGAELAKPGSSVKISCKASGYTFTSYYIIWMKQTAGQGLQYVGYINPGSGHTNYNEKFKGKATLTVDKSSSTAFMQLSSLTPDDSAVYYCARGTGGFLRIISKFDYWGQGVMVTVSS VL: DTVLTQSPALAVSLGQRVTISCRASKSVSTYMHWYQQRSGQQPKLLIYSASTLESGVPSRFSGSGSGTDFTLTIDPVEADDIANYYCQQSNELPYTFGAGTKLELKR |  | cell proliferation suppression rate (Rat-ZAP internalization screening) (human GPR20 [1]): ≥ 60%; Cell survival rate (%) in internalization activity evaluation [2]: 54%; binding result (mouse GPR20): no binding; binding result [3]: no binding
4 | humanized h046-H4b/L7 (antibody, human IgG1, kappa, Humanized IgG1 / kappa) heavy: not shown light: DTQLTQSPSSLSASVGDRVTITCRASKSVSTYIHWYQQKPGKQPKLLIYSAGNLESGVPSRFSGSGSGTDFTLTISSLQPEDFANYYCQQINELPYTFGQGTKVEIKRTVAAPSVFIFPPSDEQLKSGTASVVCLLNNFYPREAKVQWKVDNALQSGNSQESVTEQDSKDSTYSLSSTLTLSKADYEKHKVYACEVTHQGLSSPVTKSFNRGEC | binds | 
5 | antibody-drug conjugate (5) h046-H5b/L2-ADC1 (antibody, human IgG1, kappa, V domains shown, ADC1 exatecan drug linker on the interchain-disulfide cysteine, thioether bond; position not given; ADC1 exatecan drug linker (maleimidocaproyl-GGFG-NH-CH2-O-CH2-C(=O)-(NH-DX)) on cysteine sulfhydryls of reduced interchain disulfides, thioether bond; positions not given, average drug number 5.4 (E) / 7.9 (F)) VH: QVQLVQSGAEVKKPGASVKVSCKASGYTFTSYYISWIRQAPGQGLKYMGFINPGSGHTNYNEKFKGRVTITADKSSSTANMELSSLRSEDTAVYYCARGAGGFLRIITKFDYWGQGTLVTVSS VL: DIQMTQSPSSLSASVGDRVTITCRASKSVSTYIHWYQQKPGKQPKLLIYSASNLESGVPSRFSGSGSGTDFTLTISSLQPEDFATYYCQQINELPYTFGQGTKVEIKR | binds | 
6 | antibody-drug conjugate (8) h046-H5b/L2-ADC2 (antibody, human IgG1, kappa, V domains shown, ADC2 exatecan drug linker on the interchain-disulfide cysteine, thioether bond; position not given; ADC2 exatecan drug linker (maleimide-PEG2-GGFG-NH-CH2CH2CH2-C(=O)-(NH-DX)) on cysteine sulfhydryls of reduced interchain disulfides, thioether bond; positions not given, average drug number 6.0 (E) / 7.7 (F)) VH: QVQLVQSGAEVKKPGASVKVSCKASGYTFTSYYISWIRQAPGQGLKYMGFINPGSGHTNYNEKFKGRVTITADKSSSTANMELSSLRSEDTAVYYCARGAGGFLRIITKFDYWGQGTLVTVSS VL: DIQMTQSPSSLSASVGDRVTITCRASKSVSTYIHWYQQKPGKQPKLLIYSASNLESGVPSRFSGSGSGTDFTLTISSLQPEDFATYYCQQINELPYTFGQGTKVEIKR | binds | 
7 | antibody-drug conjugate h046-H4e/L7-ADC1 (antibody, human IgG1, kappa, ADC1 exatecan drug linker on the interchain-disulfide cysteine, thioether bond; position not given; ADC1 exatecan drug linker (maleimidocaproyl-GGFG-NH-CH2-O-CH2-C(=O)-(NH-DX)) on cysteine sulfhydryls of reduced interchain disulfides, thioether bond; positions not given, also called antibody-drug conjugate (13); antibody-drug conjugate (14)) heavy: not shown light: DTQLTQSPSSLSASVGDRVTITCRASKSVSTYIHWYQQKPGKQPKLLIYSAGNLESGVPSRFSGSGSGTDFTLTISSLQPEDFANYYCQQINELPYTFGQGTKVEIKRTVAAPSVFIFPPSDEQLKSGTASVVCLLNNFYPREAKVQWKVDNALQSGNSQESVTEQDSKDSTYSLSSTLTLSKADYEKHKVYACEVTHQGLSSPVTKSFNRGEC | binds | 
8 | humanized h046-H4e/L7 (antibody, human IgG1, kappa, Humanized IgG1 / kappa) heavy: not shown light: DTQLTQSPSSLSASVGDRVTITCRASKSVSTYIHWYQQKPGKQPKLLIYSAGNLESGVPSRFSGSGSGTDFTLTISSLQPEDFANYYCQQINELPYTFGQGTKVEIKRTVAAPSVFIFPPSDEQLKSGTASVVCLLNNFYPREAKVQWKVDNALQSGNSQESVTEQDSKDSTYSLSSTLTLSKADYEKHKVYACEVTHQGLSSPVTKSFNRGEC | binds | 
9 | humanized h046-H5b/L2 (antibody, human IgG1, kappa, V domains shown, Humanized IgG1 / kappa) VH: QVQLVQSGAEVKKPGASVKVSCKASGYTFTSYYISWIRQAPGQGLKYMGFINPGSGHTNYNEKFKGRVTITADKSSSTANMELSSLRSEDTAVYYCARGAGGFLRIITKFDYWGQGTLVTVSS VL: DIQMTQSPSSLSASVGDRVTITCRASKSVSTYIHWYQQKPGKQPKLLIYSASNLESGVPSRFSGSGSGTDFTLTISSLQPEDFATYYCQQINELPYTFGQGTKVEIKR | binds | 
10 | humanized h046-H10/L6 (antibody, human IgG1, kappa, V domains shown, the claims and summary say 20 to 474) VH: QVQLQQSGAELAKPGSSVKVSCKASGYTFTSYYISWIKQTTGQGLKYIGFINPGSGHTNYNEKFKGKATLTVDKSSSTANMQLSSLTPDDSAIYYCARGAGGFLRIITKFDYWGQGVMVTVSS VL: DTQLTQSPSSLSASVGDRVTITCRASKSVSTYIHWYQQKPGKQPKLLIYSASDRESGVPSRFSGSGSGTDFTLTISSLQPEDFANYYCQQINELPYTFGQGTKVEIKR | binds | 
11 | antibody-drug conjugate h046-H4b/L7-ADC1 (antibody, human IgG1, kappa, ADC1 exatecan drug linker on the interchain-disulfide cysteine, thioether bond; position not given; ADC1 exatecan drug linker (maleimidocaproyl-GGFG-NH-CH2-O-CH2-C(=O)-(NH-DX)) on cysteine sulfhydryls of reduced interchain disulfides, thioether bond; positions not given, also called antibody-drug conjugate (3); antibody-drug conjugate (4)) heavy: not shown light: DTQLTQSPSSLSASVGDRVTITCRASKSVSTYIHWYQQKPGKQPKLLIYSAGNLESGVPSRFSGSGSGTDFTLTISSLQPEDFANYYCQQINELPYTFGQGTKVEIKRTVAAPSVFIFPPSDEQLKSGTASVVCLLNNFYPREAKVQWKVDNALQSGNSQESVTEQDSKDSTYSLSSTLTLSKADYEKHKVYACEVTHQGLSSPVTKSFNRGEC | binds | 
12 | antibody-drug conjugate (1) 046Ch-ADC2 (antibody, human IgG1, ADC2 exatecan drug linker on the interchain-disulfide cysteine, thioether bond; position not given; ADC2 exatecan drug linker (maleimide-PEG2-GGFG-NH-CH2CH2CH2-C(=O)-(NH-DX)) on cysteine sulfhydryls of reduced interchain disulfides, thioether bond; positions not given, average drug number per antibody 5.6 (procedure E)) heavy: not shown light: DTVLTQSPALAVSLGQRVTISCRASKSVSTYIHWYQQRSGQQPKLLIYSASNLESGVPSRFSGSGSGTDFTLTIDPVEPDDIANYYCQQINELPYTFGAGTKLELKRAVAAPSVFIFPPSDEQLKSGTASVVCLLNNFYPREAKVQWKVDNALQSGNSQESVTEQDSKDSTYSLSSTLTLSKADYEKHKVYACEVTHQGLSSPVTKSFNRGEC | binds | 
13 | antibody-drug conjugate (2) 046Ch-ADC1 (antibody, human IgG1, ADC1 exatecan drug linker on the interchain-disulfide cysteine, thioether bond; position not given; ADC1 exatecan drug linker (maleimidocaproyl-GGFG-NH-CH2-O-CH2-C(=O)-(NH-DX)) on cysteine sulfhydryls of reduced interchain disulfides, thioether bond; positions not given, average drug number per antibody 5.6 (procedure E)) heavy: not shown light: DTVLTQSPALAVSLGQRVTISCRASKSVSTYIHWYQQRSGQQPKLLIYSASNLESGVPSRFSGSGSGTDFTLTIDPVEPDDIANYYCQQINELPYTFGAGTKLELKRAVAAPSVFIFPPSDEQLKSGTASVVCLLNNFYPREAKVQWKVDNALQSGNSQESVTEQDSKDSTYSLSSTLTLSKADYEKHKVYACEVTHQGLSSPVTKSFNRGEC | binds | 
14 | antibody-drug conjugate (7) h046-H4b/L7-ADC2 (antibody, human IgG1, kappa, ADC2 exatecan drug linker on the interchain-disulfide cysteine, thioether bond; position not given; ADC2 exatecan drug linker (maleimide-PEG2-GGFG-NH-CH2CH2CH2-C(=O)-(NH-DX)) on cysteine sulfhydryls of reduced interchain disulfides, thioether bond; positions not given, average drug number 6.1 (E) / 7.6 (F)) heavy: not shown light: DTQLTQSPSSLSASVGDRVTITCRASKSVSTYIHWYQQKPGKQPKLLIYSAGNLESGVPSRFSGSGSGTDFTLTISSLQPEDFANYYCQQINELPYTFGQGTKVEIKRTVAAPSVFIFPPSDEQLKSGTASVVCLLNNFYPREAKVQWKVDNALQSGNSQESVTEQDSKDSTYSLSSTLTLSKADYEKHKVYACEVTHQGLSSPVTKSFNRGEC | binds | 
15 | antibody-drug conjugate (12) h046-H10/L6-ADC1 (antibody, human IgG1, kappa, V domains shown, ADC1 exatecan drug linker on the interchain-disulfide cysteine, thioether bond; position not given; ADC1 exatecan drug linker (maleimidocaproyl-GGFG-NH-CH2-O-CH2-C(=O)-(NH-DX)) on cysteine sulfhydryls of reduced interchain disulfides, thioether bond; positions not given, average drug number 5.5 (E) / 8.0 (F)) VH: QVQLQQSGAELAKPGSSVKVSCKASGYTFTSYYISWIKQTTGQGLKYIGFINPGSGHTNYNEKFKGKATLTVDKSSSTANMQLSSLTPDDSAIYYCARGAGGFLRIITKFDYWGQGVMVTVSS VL: DTQLTQSPSSLSASVGDRVTITCRASKSVSTYIHWYQQKPGKQPKLLIYSASDRESGVPSRFSGSGSGTDFTLTISSLQPEDFANYYCQQINELPYTFGQGTKVEIKR | binds | 
